Data published in patent US20240409645A1 (DUALYX, published 2024).
Substitutions are numbered along the chain they refer to.

T1: human IL-2Rα (human, UniProt P01589 22-240, limits assumed)
T1 construct: recombinant protein; also called hu IL-2R; human IL-2Ra
T1 sequence: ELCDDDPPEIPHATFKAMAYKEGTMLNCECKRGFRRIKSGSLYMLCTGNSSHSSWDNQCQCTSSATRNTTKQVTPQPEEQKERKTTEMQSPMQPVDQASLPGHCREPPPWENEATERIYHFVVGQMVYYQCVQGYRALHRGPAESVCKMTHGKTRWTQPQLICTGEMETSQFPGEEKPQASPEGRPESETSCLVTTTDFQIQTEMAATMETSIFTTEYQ

T2: mouse common cytokine receptor γ-chain (IL-2Rγ) (mouse, UniProt P34902 23-263, limits assumed)
T2 construct: Recombinant mouse IL-2Rγ protein; also called mo IL-2R; mouse IL-2R gamma
T2 sequence (looked up): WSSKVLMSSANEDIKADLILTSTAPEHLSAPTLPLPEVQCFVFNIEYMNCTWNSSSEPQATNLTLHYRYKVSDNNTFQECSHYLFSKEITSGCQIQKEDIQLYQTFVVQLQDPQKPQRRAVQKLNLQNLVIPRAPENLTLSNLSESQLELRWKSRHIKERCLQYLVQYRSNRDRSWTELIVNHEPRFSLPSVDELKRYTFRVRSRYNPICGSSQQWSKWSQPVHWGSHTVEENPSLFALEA

T3: human common cytokine receptor γ-chain (IL-2Rγ) (human, UniProt P31785 23-262, limits assumed)
T3 construct: Recombinant human IL-2Rγ protein, coated (ELISA) or amine-coupled to a CM5 chip (SPR); also called hu IL-2R; CD132
T3 sequence: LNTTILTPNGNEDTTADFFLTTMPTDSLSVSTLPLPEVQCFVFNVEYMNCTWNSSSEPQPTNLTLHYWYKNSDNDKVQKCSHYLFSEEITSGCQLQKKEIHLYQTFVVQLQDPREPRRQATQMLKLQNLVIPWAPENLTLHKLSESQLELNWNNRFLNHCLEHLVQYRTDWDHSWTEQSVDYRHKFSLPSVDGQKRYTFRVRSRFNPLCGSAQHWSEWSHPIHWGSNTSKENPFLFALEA

B1: FJ1427_P035MP05B07 (VHH)
VHH: QLQLVESGGGLVQAGGSLRLSCAASGLTFDGYAIGWFRQASGKEREGVSYINGRDGSTFYADSVKGRFIISSDNAKNTVDLQMNSLKPDDAAVYYCAVDRLGSRGAYVSSWWRSPDMDLWGKGTLVTVSS
notes: periplasmic extract; also called clone nr
B2: FJ1427_P035MP05E08 (VHH)
VHH: EVQLVESGGGSVQAGGSLRLSCEASGPTLFSSYGMGWFRQAPGKKEREFVGAISRYGTYTSYADPVKDRFTISRDNAKSTVYLQMNNTKPEDTAVYYCAAYTYSGSFYSTVKTHHDEYHYWGQGTQVTVSS
notes: as for B1
B3: FJ1427_P035MP05D11 (VHH)
VHH: B2 VHH with E1Q, F70L, D75G
notes: as for B1
B4: FJ1427_P035MP07F01 (VHH)
VHH: QVQLVESGGGLVQAGGSLRLSCAASGRTLSRYAMGWFRQAPGKEREFVTANSWGGDTYYADSVQGRFTFSRDNAKNTVYLQMNSLQPEDTAVYYCAAAPTSFATTAYSSSNSYAYWGQGTQVTVSS
notes: tested as periplasmic extract; also called Clone nr
B5: FJ1427_P035MP07A02 (VHH)
VHH: B4 VHH with T28A, Y32L, T49V, N51S, G55D, Y58F, Q64K, E88G, V124A
notes: as for B4
B6: FJ1427_P035MP07A03 (VHH)
VHH: B4 VHH with Q1E, F47Y, T49A, A50I, N51D, Y58F, Q64E, T77E, A97G, A114R
notes: as for B4
B7: FJ1427_P035MP07A05 (VHH)
VHH: B4 VHH with Q1E
notes: as for B4
B8: FJ1427_P035MP07A06 (VHH)
VHH: B4 VHH with A14P
notes: as for B4
B9: FJ1427_P035MP07A09 (VHH)
VHH: B4 VHH with T28A, Y32L, T49V, N51S, G55D, Y58F, Q64K, E88G
notes: as for B4
B10: FJ1427_P035MP07B02 (VHH)
VHH: B4 VHH with Q1E, T28A, Y32L, T49V, N51S, G55D, Y58F, Q64K, E88G
notes: as for B4
B11: FJ1427_P035MP07B03 (VHH)
VHH: B4 VHH with Q1E, T28A, Y32L, T49V, N51S, G55D, Y58F, Q64K, E88G
notes: as for B4
B12: FJ1427_P035MP07B04 (VHH)
VHH: B4 VHH with Q1E
notes: tested as periplasmic extract; also called Clone nr; 602
B13: FJ1427_P035MP07B06 (VHH)
VHH: B4 VHH with Q1E
notes: tested as periplasmic extract; also called Clone nr; 618
B14: FJ1427_P035MP07B08 (VHH)
VHH: B4 VHH with Q1E, L11S, A14P
notes: tested as periplasmic extract; also called Clone nr; 634
B15: FJ1427_P035MP07B09 (VHH)
VHH: B4 VHH with T28A, Y32L, T49V, N51S, G55D, Y58F, Q64K, E88G
notes: as for B4
B16: FJ1427_P035MP07B10 (VHH)
VHH: B4 VHH with T49A, N51D, Y58F, Q64E, T77A, V78A, V92T, A97G, A114R
notes: tested as periplasmic extract; also called Clone nr; 650
B17: FJ1427_P035MP04F12 (VHH)
VHH: QVQLQESGGGWVQVGESLRLSCVPSGRTFVSGIMGWFRQAPGKEREFVARIILNNNSTRYTDSVKGRFTISRDSAKNTMYLQMNTLRPEDTAVYYCAARDRYGSGNSLSPSAYDYWGQGTQVTVSS
notes: as for B4
B18: FJ1427_P035MP07C02 (VHH)
VHH: B17 VHH with Q1E, Q5V, V23A, A40T
notes: tested as periplasmic extract; also called Clone nr; 587
B19: FJ1427_P035MP07A01 (VHH)
VHH: B4 VHH with Q1E, G16D
notes: as for B4
B20: FJ1427_P035MP07A04 (VHH)
VHH: B4 VHH with A40G, T49A, N51D, A60D, Q64E, N73I, A74T, T77A
notes: as for B4
B21: FJ1427_P035MP07A10 (VHH)
VHH: B4 VHH with K43S, T49A, N51S, Y58F, Q64E, T77A, V92A, A103P
notes: as for B4
B22: FJ1427_P035MP07B01 (VHH)
VHH: B4 VHH with S70T
notes: as for B4
B23: FJ1427_P035MP07C04 (VHH)
VHH: B4 VHH with L11V
notes: as for B4
B24: FJ1427_P035MP07D04 (VHH)
VHH: B4 VHH with Q1E, A40G, T49A, N51D, A60D, Q64E, N73I, A74T, T77A
notes: as for B4
B25: FJ1427_P035MP07E07 (VHH)
VHH: B4 VHH with Q1E, K43S, T49A, N51S, Y58F, Q64E, T77A, V92A, A103P
notes: as for B4
B26: FJ1427_P035MP07F03 (VHH)
VHH: B4 VHH with A14T
notes: as for B4
B27: FJ1427_P035MP07F08 (VHH)
VHH: B4 VHH with Y32D, T49A, N51D, Y58F, Q64E, T77A, A97G, A114R
notes: tested as periplasmic extract; also called Clone nr; 638
B28: FJ1427_P035MP07G09 (VHH)
VHH: QVQLQESGGGLVQAGGSLRLSCAASGRTLSRVAMGWFRQAPGKEREFVAADSWGGDTFYADSVEGRFTFSRDNAKNAVYLQMNSLQPEDTAVYFCAGAPASFATTAYSSSNSYSYWGQGTQVTVSS
notes: tested as periplasmic extract; also called Clone nr; 647
B29: FJ1427_P035MP07H09 (VHH)
VHH: B4 VHH with T49A, A60T, Q64E, T77A, A114T
notes: as for B4

These binders were tested against T1, human IL-2Rα (assay: SPR, P.E. on immobilised antigen).
Description: (§1) SPR was performed to determine dissociation rates using Biacore 3000 instrument (GE Healthcare). Briefly, human and mouse IL-2R proteins were immobilized on carboxylmethyl dextran sensor chip (CM5) at approximately 2500 RUs using amine coupling in acetate buffer (GE Healthcare). The VHH-containing P.E. were loaded with a flow rate of 30 uL/min and the off-rates were measured over a 120s period.

Binder	koff [s⁻¹]
B1	0.00195
B2	0.000214
B3	0.000662

The binders below were run against T2, mouse common cytokine receptor γ-chain … (assay: P.E. off-rate SPR).
Description: as §1

Binder	koff [s⁻¹]
B4	0.0855
B5	0.0116
B6	0.00795
B7	0.127
B8	0.109
B9	0.0119
B10	0.0151
B11	0.0132
B12	0.114
B13	0.112
B14	0.144
B15	0.0127
B16	0.0501

What follows are binders tested against T3, human common cytokine receptor γ-chain … (assay: P.E. off-rate SPR).
Description: as §1

Binder	koff [s⁻¹]
B17	0.00714
B18	0.0186
B4	0.00297
B19	0.00151
B5	0.00176
B6	0.00174
B20	0.00126
B7	0.00323
B8	0.00273
B9	0.00161
B21	0.00242
B22	0.00235
B10	0.00232
B11	0.00278
B12	0.00277
B13	0.00322
B14	0.00326
B15	0.00168
B16	0.00175
B23	0.00267
B24	0.00243
B25	0.00225
B26	0.00321
B27	0.00185
B28	0.0024
B29	0.00346

These binders were tested against T2, mouse common cytokine receptor γ-chain … (assay: P.E. binding ELISA).
Description: (§2) In a binding ELISA, human or mouse IL-2Rα, IL-2Rβ and IL-2Rγ proteins were coated directly on maxisorp microtiter plates overnight at 4° C. Free binding sites were blocked using 4% Marvel in PBS for 1 hour. Next, 1:5 dilution of P.E. in 1% Marvel/PBS were added to wells and incubated for 1 hour. […] Binding specificity was determined based on O.D. at 450 nm values compared to negative controls.

Binder	PE binding ELISA OD [OD450 nm]
B4	0.047
B5	0.063
B6	0.869
B7	0.046
B8	0.047
B9	0.055
B10	0.061
B11	0.058
B12	0.047
B13	0.045
B14	0.044
B15	0.082
B16	0.059

What follows are binders tested against T3, human common cytokine receptor γ-chain … (assay: P.E. binding ELISA).
Description: as §2

Binder	PE binding ELISA OD [OD450 nm]
B17	2.02
B18	0.48
B4	0.556
B19	0.478
B5	0.829
B6	1.69
B20	0.507
B7	0.973
B8	1.12
B9	0.518
B21	0.759
B22	0.518
B10	1.32
B11	1.55
B12	0.97
B13	0.902
B14	0.425
B15	1.27
B16	0.716
B23	0.406
B24	0.792
B25	0.359
B26	0.497
B27	1.24
B28	1.14
B29	1.11

What follows are binders tested against T1, human IL-2Rα (assay: ELISA, P.E. on coated antigen).
Description: as §2

Binder	OD (PE binding ELISA) [OD450 nm]
B1	1.77
B2	2.33
B3	2.54
